Patent US20180303952A1 (CYTOMX THERAPEUTICS, published 2018)

Biological target: T1, human CD147 protein (adsorbed to ELISA plates) (human, UniProt P35613-2 22-205, limits assumed)
T1 construct: also called human CD147 polypeptide; Basigin
T1 sequence (looked up): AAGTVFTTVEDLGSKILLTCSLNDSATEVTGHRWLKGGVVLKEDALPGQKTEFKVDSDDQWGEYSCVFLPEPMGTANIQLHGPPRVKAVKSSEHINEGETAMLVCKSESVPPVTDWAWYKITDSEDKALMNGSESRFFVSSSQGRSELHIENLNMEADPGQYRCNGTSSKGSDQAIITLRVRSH
Assay: ELISA, human CD147 protein adsorbed to plate, intact activatable antibody; apparent KD
Procedure: Humanized anti-human CD147 antibodies of the present disclosure hu 3A11 Hc1/Lc1 (VL of SEQ ID NO: 5 and VH of SEQ ID NO: 1) were used as a control.
Using a standard ELISA protocol, human CD147 protein was absorbed to ELISA plates and subsequently incubated with the indicated concentration of antibody of the present disclosure. Bound humanized activatable antibody of the present disclosure was detected with anti-human Fab-peroxidase secondary antibody and Ultra TMB detection (Thermo Fisher Scientific).

B1: anti-human CD147 activatable antibody hu 3A11 Hc1/Lc1-217-3001 (antibody)
VH: EVQLVESGGGLVQPGGSLRLSCAASGFTFSNYWMDWVRQAPGKGLEWVGEIRLKSYNYATHYAASVKGRFTISRDDSKNSVYLQMNSLKTEDTAVYYCTAAGTDYWGQGTLVTVSS
VL: QSLFCSGFRCDQYASGGGSSGGSAVGLLAPPGGLSGRSDNHGGSDIQMTQSPSSLSASVGDRVTITCRASQSVRTDVGWYQQKPGKAPKLLIYYSSNRYTGVPSRFSGSGSGTDFTLTISSLQPEDFATYYCQQDYSSPYTFGQGTKLEIK
notes: also called hu 3A11-217-3001
For B1, the Kd was 1.61 nM.

B2: anti-human CD147 activatable antibody hu 3A11 Hc1/Lc1-416-3001 (antibody)
VH: EVQLVESGGGLVQPGGSLRLSCAASGFTFSNYWMDWVRQAPGKGLEWVGEIRLKSYNYATHYAASVKGRFTISRDDSKNSVYLQMNSLKTEDTAVYYCTAAGTDYWGQGTLVTVSS
VL: WQRECSQKNICQYYIGGGSSGGSAVGLLAPPGGLSGRSDNHGGSDIQMTQSPSSLSASVGDRVTITCRASQSVRTDVGWYQQKPGKAPKLLIYYSSNRYTGVPSRFSGSGSGTDFTLTISSLQPEDFATYYCQQDYSSPYTFGQGTKLEIK
notes: also called hu 3A11-416-3001
Binder B2 has a Kd of 0.49 nM.

B3: anti-human CD147 activatable antibody hu 3A11 Hc1/Lc1-440-3001 (antibody)
VH: EVQLVESGGGLVQPGGSLRLSCAASGFTFSNYWMDWVRQAPGKGLEWVGEIRLKSYNYATHYAASVKGRFTISRDDSKNSVYLQMNSLKTEDTAVYYCTAAGTDYWGQGTLVTVSS
VL: TCLHLTRFNYLSCNKGGGSSGGSAVGLLAPPGGLSGRSDNHGGSDIQMTQSPSSLSASVGDRVTITCRASQSVRTDVGWYQQKPGKAPKLLIYYSSNRYTGVPSRFSGSGSGTDFTLTISSLQPEDFATYYCQQDYSSPYTFGQGTKLEIK
notes: also called hu 3A11-440-3001
B3 gave a Kd of 1.23 nM.

B4: anti-human CD147 activatable antibody hu 3A11 Hc1/Lc1-216-3001 (antibody)
VH: EVQLVESGGGLVQPGGSLRLSCAASGFTFSNYWMDWVRQAPGKGLEWVGEIRLKSYNYATHYAASVKGRFTISRDDSKNSVYLQMNSLKTEDTAVYYCTAAGTDYWGQGTLVTVSS
VL: HGPCHYNFNSGCAQFGGGSSGGSAVGLLAPPGGLSGRSDNHGGSDIQMTQSPSSLSASVGDRVTITCRASQSVRTDVGWYQQKPGKAPKLLIYYSSNRYTGVPSRFSGSGSGTDFTLTISSLQPEDFATYYCQQDYSSPYTFGQGTKLEIK
notes: also called hu 3A11-216-3001
Binder B4 has a Kd of 0.89 nM.

B5: anti-human CD147 activatable antibody hu 3A11 Hc1/Lc1-419-3001 (antibody)
VH: EVQLVESGGGLVQPGGSLRLSCAASGFTFSNYWMDWVRQAPGKGLEWVGEIRLKSYNYATHYAASVKGRFTISRDDSKNSVYLQMNSLKTEDTAVYYCTAAGTDYWGQGTLVTVSS
VL: LHGPCHYDLKCKNNTGGGSSGGSAVGLLAPPGGLSGRSDNHGGSDIQMTQSPSSLSASVGDRVTITCRASQSVRTDVGWYQQKPGKAPKLLIYYSSNRYTGVPSRFSGSGSGTDFTLTISSLQPEDFATYYCQQDYSSPYTFGQGTKLEIK
notes: also called hu 3A11-419-3001
Binder B5 has a Kd of 9.43 nM.

B6: anti-human CD147 activatable antibody hu 3A11 Hc1/Lc1-445-3001 (antibody)
VH: EVQLVESGGGLVQPGGSLRLSCAASGFTFSNYWMDWVRQAPGKGLEWVGEIRLKSYNYATHYAASVKGRFTISRDDSKNSVYLQMNSLKTEDTAVYYCTAAGTDYWGQGTLVTVSS
VL: SHGPCHFDYQCINNTGGGSSGGSAVGLLAPPGGLSGRSDNHGGSDIQMTQSPSSLSASVGDRVTITCRASQSVRTDVGWYQQKPGKAPKLLIYYSSNRYTGVPSRFSGSGSGTDFTLTISSLQPEDFATYYCQQDYSSPYTFGQGTKLEIK
notes: also called hu 3A11-445-3001
B6 was tested, and the Kd was 7.86 nM.

B7: anti-human CD147 activatable antibody hu 3A11 Hc1/Lc1-428-3001 (antibody)
VH: EVQLVESGGGLVQPGGSLRLSCAASGFTFSNYWMDWVRQAPGKGLEWVGEIRLKSYNYATHYAASVKGRFTISRDDSKNSVYLQMNSLKTEDTAVYYCTAAGTDYWGQGTLVTVSS
VL: WHGPCHYTKCDDHTMGGGSSGGSAVGLLAPPGGLSGRSDNHGGSDIQMTQSPSSLSASVGDRVTITCRASQSVRTDVGWYQQKPGKAPKLLIYYSSNRYTGVPSRFSGSGSGTDFTLTISSLQPEDFATYYCQQDYSSPYTFGQGTKLEIK
notes: also called hu 3A11-428-3001
Work on B7 yielded a Kd of 7.63 nM.

B8: anti-human CD147 activatable antibody hu 3A11 Hc1/Lc1-415-3001 (antibody)
VH: EVQLVESGGGLVQPGGSLRLSCAASGFTFSNYWMDWVRQAPGKGLEWVGEIRLKSYNYATHYAASVKGRFTISRDDSKNSVYLQMNSLKTEDTAVYYCTAAGTDYWGQGTLVTVSS
VL: LHGPCHFNNCNTLKLGGGSSGGSAVGLLAPPGGLSGRSDNHGGSDIQMTQSPSSLSASVGDRVTITCRASQSVRTDVGWYQQKPGKAPKLLIYYSSNRYTGVPSRFSGSGSGTDFTLTISSLQPEDFATYYCQQDYSSPYTFGQGTKLEIK
notes: also called hu 3A11-415-3001
For B8, the Kd was 4.72 nM.

B9: anti-human CD147 activatable antibody hu 3A11 Hc1/Lc1-422-3001 (antibody)
VH: EVQLVESGGGLVQPGGSLRLSCAASGFTFSNYWMDWVRQAPGKGLEWVGEIRLKSYNYATHYAASVKGRFTISRDDSKNSVYLQMNSLKTEDTAVYYCTAAGTDYWGQGTLVTVSS
VL: LHGPCHYMNTCHNVKGGGSSGGSAVGLLAPPGGLSGRSDNHGGSDIQMTQSPSSLSASVGDRVTITCRASQSVRTDVGWYQQKPGKAPKLLIYYSSNRYTGVPSRFSGSGSGTDFTLTISSLQPEDFATYYCQQDYSSPYTFGQGTKLEIK
notes: also called hu 3A11-422-3001
Binder B9 has a Kd of 1.55 nM.

B10: anti-human CD147 activatable antibody hu 3A11 Hc1/Lc1-443-3001 (antibody)
VH: EVQLVESGGGLVQPGGSLRLSCAASGFTFSNYWMDWVRQAPGKGLEWVGEIRLKSYNYATHYAASVKGRFTISRDDSKNSVYLQMNSLKTEDTAVYYCTAAGTDYWGQGTLVTVSS
VL: AHGPCHYNTECNSNKGGGSSGGSAVGLLAPPGGLSGRSDNHGGSDIQMTQSPSSLSASVGDRVTITCRASQSVRTDVGWYQQKPGKAPKLLIYYSSNRYTGVPSRFSGSGSGTDFTLTISSLQPEDFATYYCQQDYSSPYTFGQGTKLEIK
notes: also called hu 3A11-443-3001
Binder B10 has a Kd of 7.4 nM.

B11: anti-human CD147 activatable antibody hu 3A11 Hc1/Lc1-215-3001 (antibody)
VH: EVQLVESGGGLVQPGGSLRLSCAASGFTFSNYWMDWVRQAPGKGLEWVGEIRLKSYNYATHYAASVKGRFTISRDDSKNSVYLQMNSLKTEDTAVYYCTAAGTDYWGQGTLVTVSS
VL: RYQSCHSYWCTEGNHGGGSSGGSAVGLLAPPGGLSGRSDNHGGSDIQMTQSPSSLSASVGDRVTITCRASQSVRTDVGWYQQKPGKAPKLLIYYSSNRYTGVPSRFSGSGSGTDFTLTISSLQPEDFATYYCQQDYSSPYTFGQGTKLEIK
notes: also called hu 3A11-215-3001
B11 showed a Kd of 5.53 nM.

B12: anti-human CD147 activatable antibody hu 3A11 Hc1/Lc1-253-3001 (antibody)
VH: EVQLVESGGGLVQPGGSLRLSCAASGFTFSNYWMDWVRQAPGKGLEWVGEIRLKSYNYATHYAASVKGRFTISRDDSKNSVYLQMNSLKTEDTAVYYCTAAGTDYWGQGTLVTVSS
VL: VHGPCHWSVECLSNVGGGSSGGSAVGLLAPPGGLSGRSDNHGGSDIQMTQSPSSLSASVGDRVTITCRASQSVRTDVGWYQQKPGKAPKLLIYYSSNRYTGVPSRFSGSGSGTDFTLTISSLQPEDFATYYCQQDYSSPYTFGQGTKLEIK
notes: also called hu 3A11-253-3001
With B12 the Kd was 0.87 nM.

B13: anti-human CD147 activatable antibody hu 3A11 Hc1/Lc1-221-3001 (antibody)
VH: EVQLVESGGGLVQPGGSLRLSCAASGFTFSNYWMDWVRQAPGKGLEWVGEIRLKSYNYATHYAASVKGRFTISRDDSKNSVYLQMNSLKTEDTAVYYCTAAGTDYWGQGTLVTVSS
VL: DHGPCHYVSCTTINHGGGSSGGSAVGLLAPPGGLSGRSDNHGGSDIQMTQSPSSLSASVGDRVTITCRASQSVRTDVGWYQQKPGKAPKLLIYYSSNRYTGVPSRFSGSGSGTDFTLTISSLQPEDFATYYCQQDYSSPYTFGQGTKLEIK
notes: also called hu 3A11-221-3001
For B13, the Kd was 2.5 nM.
